Experiments:
[1] = test system: ⍺4β7 on primary CD8^+ T cells; experiment: Flow cytometry: FAM-conjugated pCD4^165-178 binding to RA-treated primary CD8^+ T cells; set-up: species or system human; settings: FAM-Ttds-labelled peptide 1.25 μg/200,000 cells in 100 μl; MnCl2; 3 independent experiments
Description: To further investigate the interaction between pCD4^165-178 and ⍺4β7 we attached a fluorescein dye to its amino terminus via a trioxatridecan-succinamic acid (Ttds) linker (Fig 5A). A scrambled pCD4^165-178 was employed as a control. […] FIB504 and vedolizumab inhibited binding by ~50%. This inhibition pattern resembles the one we obtained when inhibiting D1D2-Ig⍺tp with the same antagonists (Fig 3). We conclude that the CD4 D2 G β-strand binds directly to the headpiece region of ⍺4β7 in a cation dependent manner. Support for this conclusion, in the form of site directed mutagenesis within the D2 G β-strand is provided below.
Fig 5 Direct binding of pCD4^165-178 to ⍺4β7 on primary T cells. (A) Sequence of FAM -conjugated pCD4^165-178 and a scrambled derivative (FAM-scr pCD4^165-178). (B) Flow-cytometry derived histogram of pCD4^165-178 binding to RA -cultured CD8^+ T cells. pCD4^165-178 in the presence (green), or absence of Mn^++(black). Unstained cells are shown (grey). (C) Binding of pCD4^165-178 and its scrambled derivative to CD8^+ T cells in the presence of MnCl2 as in panel B, and in the presence of ⍺4 and ⍺4β7 antagonists, as indicated. Y-axis indicates % cells bound. Error bars represent standard error from 3 independent experiments.
Cells were stained with fluoresceine conjugated mAbs or recombinant proteins using standard procedures preceded by Fc receptor blocking with human IgG. Buffers used were 10 mM HEPES 150 mM NaCl (HBS Buffer) with 100 μM CaCl2. 1 mM MnCl2 was also included, unless otherwise specified. Buffer without divalent cations included 0.1 mM EDTA. Unlabeled mAb or protein inhibitors were preincubated with cells or proteins at a 5X molar excess for 15 min on ice. FAM labeled peptides were used at 1.25 μg/ 200,000 cells in a 100 μl volume. Data were acquired using a FACSCanto II (BD Biosciences) and analyzed with FlowJo software (BD Biosciences). Plotted MFI values represent absolute values.

[2] = test system: ⍺4β7 transfected 293T cells; experiment: Flow cytometry: staining of 293T cells co-transfected with ⍺4 and β7 expression vectors; assay type: binding; settings: Fig 1C
Description: The FRET/FLIM results described above indicate a direct interaction between CD4 and ⍺4β7. […] To this end we employed a fluorescently labelled soluble dodecameric CD4 Ig fusion protein, termed D1D2-Ig⍺tp, that includes the two N-terminal Ig-like domains of CD4 (D1D2, aa 1–180), followed by IgG1 CH2 and CH3 domains, followed by the 18 aa tail-piece domain of IgA (⍺tp). In this oligomer, 12 D1D2-Igs are arranged in a disulphide linked daisy-chain (Fig 1A). Primary CD4^+ T cells, some of which express ⍺4β7, were reacted with D1D2-Ig⍺tp and analyzed by flow-cytometry. A second oligomeric Ig fusion protein, MicA-Ig⍺tp, which includes the two N-terminal domains of MicA, was employed as a specificity control. […] MAdCAM-Ig was employed as a positive control. […] We conclude that an oligomeric soluble CD4 that includes only its two N-terminal domains can bind to ⍺4β7 in a specific way.
Fig 1 Binding of soluble CD4 to ⍺4β7 on CD4^+ T cells. (A) Schematic of D1D2-Ig⍺tp. […] X-axis indicates geometric mean fluorescence intensity (gMFI). […]
Cells were stained with fluoresceine conjugated mAbs or recombinant proteins using standard procedures preceded by Fc receptor blocking with human IgG. […] Data were acquired using a FACSCanto II (BD Biosciences) and analyzed with FlowJo software (BD Biosciences). […]

[3] = test system: ⍺4β7; experiment: SPR: inhibition by linear peptides of soluble ⍺4β7 binding to a CD4 D1D2 coated surface; settings: for inhibition of ⍺4β7 binding to D1D2 (in words): SPR, Fig 7B, 7D, S5 Fig; for inhibition of ⍺4β7 binding to CD4 D1D2 coated surface: SPR peptide scan (Fig 4A), ⍺4β7 pre-incubated with peptide 2 hours at room temperature, 1 mM MnCl2
Description: We next modified our SPR -based assay in order to map the site(s) on CD4 that interacts with ⍺4β7. In this modified assay ⍺4β7 was passed over a surface coated with CD4 D1D2 in the absence or presence of 42 overlapping 15 amino acid linear peptides spanning CD4 residues 1–178 (S2 Table). Two peptides located in CD4 D1, #7 and #9, inhibited ⍺4β7 binding by ~17% (Fig 4A). The final peptide in CD4 D2, p42, inhibited binding by ~ 66%. Linear peptides often lack the true conformation of the protein from which they are derived. Additionally, the kinetic format of our assay allows for ligand-analyte rebinding during the association phase. These features render this inhibition assay somewhat insensitive. Nevertheless, the dynamic range of this assay is sufficient to identify interactions that are worthy of follow-up investigation (S4 Fig). As such, our preliminary findings raised the possibility that both D1 and D2 domains of CD4 interact with ⍺4β7. Of note, MAdCAM-1 and VCAM-1, like CD4, present two tandemly arrayed N-terminal IgSF domains (Fig 4B). In both cases, binding to ⍺4β7 is mediated by a 1° binding site in their D1s and an accessory site, located in their D2s. The term accessory is a misnomer insofar as these sites plays an essential role in ⍺4β7 binding. Follow-up experiments focused on p9 and p42, which we herein refer to as pCD4^33-47 and pCD4^165-178. pCD4^33-47 partially overlaps the D1 C’C” β-strands and a connecting loop. The primary gp120 contact site (Phe^43) lies at the N-terminal edge of this loop (Fig 4C). pCD4^165-178 includes Q^165 and K^166. These residues lie primarily within the G β-strand of D2, close to the boundary with D3. Because peptide inhibition assays sometime mediate nonspecific effects, further analysis was performed to better establish the role of these two regions of CD4 in binding to ⍺4β7.
To determine if this is the case, we employed an SPR -based assay. Biosensor surfaces were coated with either CD4 D1D2 or a 42 aa cyclic V2 peptide derived from the subtype E 92TH023 gp120 (cV2 92TH023). A third surface coated with MAdCAM-Ig was employed as a positive control. Soluble ⍺4β7 was passed over these surfaces. We then evaluated the capacity of staggered 15 aa peptides that span either CD4 D2 or gp120 V2 to inhibit this interaction (Fig 7A).
Experiments were performed using a Biacore 3000 instrument (Cytiva Life Sciences) using CM4 or CM5 sensor chips. The data were evaluated using BIAevaluation 4.1.1 software (Cytiva Life Sciences). The chip surface was activated by injecting 35 μl of a 1:1 mixture of 0.05 M N-hydroxysuccinimide and 0.2 M N-ethyl-N-(dimethylaminopropyl) carbodiimide at 5 μl/min. NeutrAvidin, HIV gp120, sCD4 (D1D2) or Hu-MAdCAM-Ig (R&D Systems) at concentrations of 5 μg/ml in 10mM NaOAc, pH 4.5, were immobilized to 250–750 resonance units (RU). After the proteins were immobilized to the desired densities, unreacted sites were blocked with 35 μl of 1 M Tris-HCl (pH 8.0). Biotinylated cyclic V2 peptides (1 μg/ml in 20 mM Tris-HCl, pH 8.0) were bound to the NeutrAvidin surfaces to densities of approximately 250–300 RU. One surface was activated and blocked without ligand as a control surface for non-specific binding. Signal from the control surface was subsequently subtracted. Running buffer was HBS (pH 7.4), 1 mM MnCl2, 0.005% Tween- 20, 0.05% soluble carboxymethyl-dextran. Binding experiments were carried out at a flow rate of 25 μl/min at 25°C. After a 2 min injection, the surface was washed for an additional 2 min in running buffer allowing dissociation of the bound ligand from the surface. The surfaces were regenerated by multiple injections of 4.5 M MgCl2 at a flow rate of 100 μl/min. Inhibition of ⍺4β7 binding by linear V2-loop and CD4 derived peptides was carried out by pre-incubating ⍺4β7 with the peptides in running buffer at the indicated concentrations for 2 hours at room temperature prior to passing them over the prepared surfaces as described above. […]

[4] = biological target: BG505 SOSIP env trimer (HIV-1 BG505); experiment: SPR
[5] = biological target: CD4 D1D2 protein (23 kD, aa 1-183) (human); experiment: SPR
[6] = biological target: BG505 gp120 (monomeric gp120) (HIV-1 BG505); experiment: SPR
[7] = biological target: T1, soluble α4β7 (recombinant integrin α4β7) (UniProt P13612 35-977; P26010 20-723); experiment: SPR; settings: both partners purified
T1 construct: also called integrin ⍺4β7; recombinant ⍺4β7

CCOCc1cc(OC)c(-c2ccc(C[C@H](NC(=O)c3c(F)cccc3F)C(=O)O)cc2)c(OC)c1 [FG, firategrast]
reduction of pCD4^165-178 binding to CD8^+ T cells [1]: ~ 80%
inhibition of D1D2-Ig⍺tp and MAdCAM-Ig binding to ⍺4β7 transfected 293T cells (in words) [2]: inhibited

IVVLAFQKASSIVY [CD4 P45, overlapping linear CD4 D2 peptide]
inhibition of ⍺4β7 binding to D1D2 (in words) [3]: unable to inhibit

KIDIVVLAFQKASS [CD4 P44, overlapping linear CD4 D2 peptide]
inhibition of ⍺4β7 binding to D1D2 (in words) [3]: unable to inhibit

QFHWKNSNQIKILGN [CD4 P7, overlapping linear CD4 peptide, CD4 D1]
inhibition of ⍺4β7 binding to CD4 D1D2 coated surface [3]: ~ 17%

QIKILGNQGSFLTKG [CD4 P9, linear CD4 D1 peptide overlapping the C'C'' β-strands and connecting loop]
inhibition of ⍺4β7 binding to CD4 D1D2 coated surface [3]: ~ 17%

VEFKIDIVVLAFQK [CD4 P43, overlapping linear CD4 D2 peptide]
inhibition of ⍺4β7 binding to D1D2 (in words) [3]: reduced inhibition relative to pCD4^165-178

soluble α4β7 (recombinant integrin α4β7) (from UniProt P13612 35-977; P26010 20-723) (complex)
Ka [4]: 7.47e+08 M⁻¹
Kd [4]: 1.34 nM
koff [4]: 0.00112 s⁻¹
kon [4]: 840000 M⁻¹ s⁻¹
Ka [5]: 2.8e+08 M⁻¹
koff [5]: 0.000464 s⁻¹
kon [5]: 130000 M⁻¹ s⁻¹
Ka [6]: 1.01e+09 M⁻¹
Kd [6]: 0.994 nM
koff [6]: 0.00136 s⁻¹
kon [6]: 1.37e+06 M⁻¹ s⁻¹

B1: VCAM-Ig (Fc fusion, UniProt P19320 25-698, looked up)
chain: FKIETTPESRYLAQIGDSVSLTCSTTGCESPFFSWRTQIDSPLNGKVTNEGTTSTLTMNPVSFGNEHSYLCTATCESRKLEKGIQVEIYSFPKDPEIHLSGPLEAGKPITVKCSVADVYPFDRLEIDLLKGDHLMKSQEFLEDADRKSLETKSLEVTFTPVIEDIGKVLVCRAKLHIDEMDSVPTVRQAVKELQVYISPKNTVISVNPSTKLQEGGSVTMTCSSEGLPAPEIFWSKKLDNGNLQHLSGNATLTLIAMRMEDSGIYVCEGVNLIGKNRKEVELIVQEKPFTVEISPGPRIAAQIGDSVMLTCSVMGCESPSFSWRTQIDSPLSGKVRSEGTNSTLTLSPVSFENEHSYLCTVTCGHKKLEKGIQVELYSFPRDPEIEMSGGLVNGSSVTVSCKVPSVYPLDRLEIELLKGETILENIEFLEDTDMKSLENKSLEMTFIPTIEDTGKALVCQAKLHIDDMEFEPKQRQSTQTLYVNVAPRDTTVLVSPSSILEEGSSVNMTCLSQGFPAPKILWSRQLPNGELQPLSENATLTLISTKMEDSGVYLCEGINQAGRSRKEVELIIQVTPKDIKLTAFPSESVKEGDTVIISCTCGNVPETWIILKKKAETGDTVLKSIDGAYTIRKAQLKDAGVYECESKNKVGSQLRSLTLDVQGRENNKDYFSPE
notes: also called recombinant VCAM-Ig
Ka [7]: 2.76e+07 M⁻¹
Kd [7]: 36.3 nM
koff [7]: 0.00141 s⁻¹
kon [7]: 38700 M⁻¹ s⁻¹

B2: MAdCAM-Ig (Fc fusion, human, UniProt Q13477 19-317, looked up)
chain: QSLQVKPLQVEPPEPVVAVALGASRQLTCRLACADRGASVQWRGLDTSLGAVQSDTGRSVLTVRNASLSAAGTRVCVGSCGGRTFQHTVQLLVYAFPDQLTVSPAALVPGDPEVACTAHKVTPVDPNALSFSLLVGGQELEGAQALGPEVQEEEEEPQGDEDVLFRVTERWRLPPLGTPVPPALYCQATMRLPGLELSHRQAIPVLHSPTSPEPPDTTSPESPDTTSPESPDTTSQEPPDTTSPEPPDKTSPEPAPQQGSTHTPRSPGSTRTRRPEISQAGPTQGEVIPTGSSKPAGDQ
notes: also called Hu-MAdCAM-Ig; recombinant MAdCAM-Ig
Ka [7]: 1.12e+08 M⁻¹
Kd [7]: 8.92 nM
koff [7]: 0.000863 s⁻¹
kon [7]: 96700 M⁻¹ s⁻¹

Reference: PMC10732398 (PLOS Pathogens, 2023)
